Measured values: US20240117018A1

Tests used:
Assay in all cases: cell-based or functional assay
[1] = molecular target: HIV-1 Env of pseudovirus CAP45.2.00.G3 (HIV-1)
[2] = molecular target: HIV-1 Env of pseudovirus CNE53 (HIV-1)
[3] = molecular target: HIV-1 Env of pseudovirus CNE17 (HIV-1)
[4] = molecular target: HIV-1 Env of pseudovirus 3415.v1.c1 (HIV-1)
[5] = molecular target: HIV-1 Env of pseudovirus Ce2010_F5 (HIV-1)
[6] = molecular target: HIV-1 Env of pseudovirus 1394C9G1(Rev-) (HIV-1)
[7] = molecular target: HIV-1 Env of pseudovirus TRO.11 (HIV-1)
[8] = molecular target: HIV-1 Env of pseudovirus HIV-16055-2.3 (HIV-1)
[9] = molecular target: HIV-1 Env of pseudovirus 1056_10_TA11_1826 (HIV-1)
[10] = molecular target: HIV-1 Env of pseudovirus 6244_13_B5_4576 (HIV-1)
[11] = molecular target: HIV-1 Env of pseudovirus 1012_11_TC21_3257 (HIV-1)
[12] = molecular target: HIV-1 Env of pseudovirus TRJO4551.58 (HIV-1)
[13] = molecular target: HIV-1 Env of pseudovirus 246F C1G (HIV-1)
[14] = molecular target: HIV-1 Env of pseudovirus Du422.1 (HIV-1)
[15] = molecular target: HIV-1 Env of pseudovirus 6240_08_TA5_4622 (HIV-1)
[16] = molecular target: HIV-1 Env of pseudovirus 0260.v5.c36 (HIV-1)
[17] = molecular target: HIV-1 Env of pseudovirus ZM109F.PB4 (HIV-1)
[18] = molecular target: HIV-1 Env of pseudovirus 3365.v2.c2 (HIV-1)
[19] = molecular target: HIV-1 Env of pseudovirus Ce1172_H1 (HIV-1)
[20] = molecular target: HIV-1 Env of pseudovirus CNE52 (HIV-1)
[21] = molecular target: HIV-1 Env of pseudovirus CNE58 (HIV-1)
[22] = molecular target: HIV-1 Env of pseudovirus AC10.0.29 (HIV-1)
[23] = molecular target: HIV-1 Env of pseudovirus ZM53M.PB12 (HIV-1)
[24] = molecular target: HIV-1 Env of pseudovirus ZM249M.PL1 (HIV-1)
[25] = molecular target: HIV-1 Env of pseudovirus Ce2060_G9 (HIV-1)
[26] = molecular target: HIV-1 Env of pseudovirus RHPA4259.7 (HIV-1)
[27] = molecular target: HIV-1 Env of pseudovirus Ce704809221_1B3 (HIV-1)
[28] = molecular target: HIV-1 Env of pseudovirus Ce0393_C3 (HIV-1)
[29] = molecular target: HIV-1 Env of pseudovirus CNE30 (HIV-1)
[30] = molecular target: HIV-1 Env of pseudovirus 7030102001E5(Rev-) (HIV-1)
[31] = molecular target: HIV-1 Env of pseudovirus ZM214M.PL15 (HIV-1)
[32] = molecular target: HIV-1 Env of pseudovirus Q461.e2 (HIV-1)
[33] = molecular target: HIV-1 Env of pseudovirus Q842.d12 (HIV-1)
[34] = molecular target: HIV-1 Env of pseudovirus Du172.17 (HIV-1)

VRC07 (antibody)
IC50 [1]: 0.355 µg/mL | IC80 [1]: 3.09 µg/mL | IC50 [2]: 0.031 µg/mL | IC80 [2]: 0.086 µg/mL | IC50 [3]: 0.136 µg/mL | IC80 [3]: 0.651 µg/mL | IC50 [4]: 0.036 µg/mL | IC80 [4]: 0.152 µg/mL | IC50 [5]: 0.131 µg/mL | IC80 [5]: 0.48 µg/mL | IC50 [6]: 0.112 µg/mL | IC80 [6]: 0.368 µg/mL | IC50 [7]: 0.132 µg/mL | IC80 [7]: 0.456 µg/mL | IC50 [8]: 0.025 µg/mL | IC80 [8]: 0.135 µg/mL | IC50 [9]: 0.239 µg/mL | IC80 [9]: 1.11 µg/mL | IC50 [10]: 0.065 µg/mL | IC80 [10]: 0.23 µg/mL | IC50 [11]: 0.014 µg/mL | IC80 [11]: 0.045 µg/mL | IC50 [12]: 0.032 µg/mL | IC80 [12]: 0.125 µg/mL | IC50 [13]: 0.286 µg/mL | IC80 [13]: 1.04 µg/mL | IC50 [14]: > 50 µg/mL | IC80 [14]: > 50 µg/mL | IC50 [15]: 0.448 µg/mL | IC80 [15]: 1.54 µg/mL | IC50 [16]: 0.448 µg/mL | IC80 [16]: 1.62 µg/mL | IC50 [17]: 0.112 µg/mL | IC80 [17]: 0.389 µg/mL | IC50 [18]: 0.038 µg/mL | IC80 [18]: 0.109 µg/mL | IC50 [19]: > 50 µg/mL | IC80 [19]: > 50 µg/mL | IC50 [20]: 0.042 µg/mL | IC80 [20]: 0.142 µg/mL | IC50 [21]: 0.11 µg/mL | IC80 [21]: 0.298 µg/mL | IC50 [22]: 0.282 µg/mL | IC80 [22]: 0.986 µg/mL | IC50 [23]: 0.275 µg/mL | IC80 [23]: 1.29 µg/mL | IC50 [24]: 0.041 µg/mL | IC80 [24]: 0.145 µg/mL | IC50 [25]: 0.085 µg/mL | IC80 [25]: 0.422 µg/mL | IC50 [26]: 0.017 µg/mL | IC80 [26]: 0.048 µg/mL | IC50 [27]: 0.273 µg/mL | IC80 [27]: 1.14 µg/mL | IC50 [28]: 0.182 µg/mL | IC80 [28]: 0.634 µg/mL | IC50 [29]: 0.326 µg/mL | IC80 [29]: 1.08 µg/mL | IC50 [30]: 0.205 µg/mL | IC80 [30]: 0.911 µg/mL | IC50 [31]: 0.198 µg/mL | IC80 [31]: 1.42 µg/mL | IC50 [32]: 0.282 µg/mL | IC80 [32]: 1.02 µg/mL | IC50 [33]: 0.015 µg/mL | IC80 [33]: 0.051 µg/mL | IC50 [34]: 0.796 µg/mL | IC80 [34]: 3.66 µg/mL
